Holding throughout (test): HPLC of reaction products, Hanes-Woolf plot
Settings in all cases: 50 mM Tris-HCl pH 8.0, 37°C, 33 nM enzyme

The subject of data set [1] is T1, O=C(O[C@@H]1Cc2c(O)cc(O)cc2O[C@H]1c1ccc(O)c(O)c1)c1cc(O)c(O)c(O)c1.
T1 construct: full ORF (1410 bp, 469 residues, 50,708 Da), C-terminal His tag, fused to YbdK signal peptide in pBE-S, expressed in Bacillus subtilis RIK 1285, purified from cells
The data set is classed as biochemical, Lactiplantibacillus paraplantarum. The text has this:
(§1) HPLC of reaction products, Hanes-Woolf plot on TanLpa

Data set [2] deals with T2, O=C(O[C@@H]1Cc2c(O)cc(O)cc2O[C@H]1c1cc(O)c(O)c(O)c1)c1cc(O)c(O)c(O)c1.
T2 construct: full ORF (1410 bp, 469 residues, 50,708 Da), C-terminal His tag, fused to YbdK signal peptide in pBE-S, expressed in Bacillus subtilis RIK 1285, purified from cells
The data set is classed as biochemical, Lactiplantibacillus paraplantarum.
From the text: as §1

The subject of data set [3] is T3, O=C(O[C@@H]1Cc2c(O)cc(O)cc2O[C@@H]1c1cc(O)c(O)c(O)c1)c1cc(O)c(O)c(O)c1.
T3 construct: full ORF (1410 bp, 469 residues, 50,708 Da), C-terminal His tag, fused to YbdK signal peptide in pBE-S, expressed in Bacillus subtilis RIK 1285, purified from cells
The data set is classed as biochemical, Lactiplantibacillus paraplantarum.
From the text: as §1

Data set [4] has as its system T4, COC(=O)c1cc(O)c(O)c(O)c1.
T4 construct: full ORF (1410 bp, 469 residues, 50,708 Da), C-terminal His tag, fused to YbdK signal peptide in pBE-S, expressed in Bacillus subtilis RIK 1285, purified from cells
Type of data set: biochemical, Lactiplantibacillus paraplantarum.
From the text: as §1

Data set [5] relates to T5, COc1cc(C(=O)O[C@@H]2Cc3c(O)cc(O)cc3O[C@@H]2c2cc(O)c(O)c(O)c2)cc(O)c1O.
T5 construct: full ORF (1410 bp, 469 residues, 50,708 Da), C-terminal His tag, fused to YbdK signal peptide in pBE-S, expressed in Bacillus subtilis RIK 1285, purified from cells
Type of data set: biochemical, Lactiplantibacillus paraplantarum.
From the text: as §1

The test system of data set [6] is T6, O=C(O[C@@H]1Cc2c(O)cc(O)cc2O[C@@H]1c1ccc(O)c(O)c1)c1cc(O)c(O)c(O)c1.
T6 construct: full ORF (1410 bp, 469 residues, 50,708 Da), C-terminal His tag, fused to YbdK signal peptide in pBE-S, expressed in Bacillus subtilis RIK 1285, purified from cells
The data set is classed as biochemical, Lactiplantibacillus paraplantarum.
From the text: as §1

Data set [7] deals with T7, O=C(O[C@@H]1Cc2c(O)cc(O)cc2O[C@H]1c1ccc(O)c(O)c1)c1cc(O)c(O)c(O)c1.
T7 construct: full ORF (1413 bp, 470 residues, 51,193 Da), C-terminal His tag, fused to YbdK signal peptide in pBE-S, expressed in Bacillus subtilis RIK 1285, purified from cells
Type of data set: biochemical, Lactiplantibacillus pentosus. From the text: (§2) HPLC of reaction products, Hanes-Woolf plot on TanLpe

Data set [8] deals with T8, COC(=O)c1cc(O)c(O)c(O)c1.
T8 construct: full ORF (1413 bp, 470 residues, 51,193 Da), C-terminal His tag, fused to YbdK signal peptide in pBE-S, expressed in Bacillus subtilis RIK 1285, purified from cells
Type of data set: biochemical, Lactiplantibacillus pentosus.
From the text: as §2

In data set [9] the test system is T9, O=C(O[C@@H]1Cc2c(O)cc(O)cc2O[C@@H]1c1cc(O)c(O)c(O)c1)c1cc(O)c(O)c(O)c1.
T9 construct: full ORF (1413 bp, 470 residues, 51,193 Da), C-terminal His tag, fused to YbdK signal peptide in pBE-S, expressed in Bacillus subtilis RIK 1285, purified from cells
The data set is classed as biochemical, Lactiplantibacillus pentosus.
From the text: as §2

Data set [10] relates to T10, O=C(O[C@@H]1Cc2c(O)cc(O)cc2O[C@H]1c1cc(O)c(O)c(O)c1)c1cc(O)c(O)c(O)c1.
T10 construct: full ORF (1413 bp, 470 residues, 51,193 Da), C-terminal His tag, fused to YbdK signal peptide in pBE-S, expressed in Bacillus subtilis RIK 1285, purified from cells
The data set is classed as biochemical, Lactiplantibacillus pentosus.
From the text: as §2

Data set [11] has as its system T11, COc1cc(C(=O)O[C@@H]2Cc3c(O)cc(O)cc3O[C@@H]2c2cc(O)c(O)c(O)c2)cc(O)c1O.
T11 construct: full ORF (1413 bp, 470 residues, 51,193 Da), C-terminal His tag, fused to YbdK signal peptide in pBE-S, expressed in Bacillus subtilis RIK 1285, purified from cells
Type of data set: biochemical, Lactiplantibacillus pentosus.
From the text: as §2

Data set [12] relates to T12, O=C(O[C@@H]1Cc2c(O)cc(O)cc2O[C@@H]1c1ccc(O)c(O)c1)c1cc(O)c(O)c(O)c1.
T12 construct: full ORF (1413 bp, 470 residues, 51,193 Da), C-terminal His tag, fused to YbdK signal peptide in pBE-S, expressed in Bacillus subtilis RIK 1285, purified from cells
The data set is classed as biochemical, Lactiplantibacillus pentosus.
From the text: as §2

Substrate in data set [13]: O=C(O[C@@H]1Cc2c(O)cc(O)cc2O[C@@H]1c1cc(O)c(O)c(O)c1)c1cc(O)c(O)c(O)c1
Type of data set: biochemical, Lactiplantibacillus plantarum. From the text:
(§3) HPLC of reaction products, Hanes-Woolf plot on TanLpl

Substrate in data set [14]: O=C(O[C@@H]1Cc2c(O)cc(O)cc2O[C@H]1c1ccc(O)c(O)c1)c1cc(O)c(O)c(O)c1
Type of data set: biochemical, Lactiplantibacillus plantarum.
From the text: as §3

Substrate in data set [15]: COc1cc(C(=O)O[C@@H]2Cc3c(O)cc(O)cc3O[C@@H]2c2cc(O)c(O)c(O)c2)cc(O)c1O
Type of data set: biochemical, Lactiplantibacillus plantarum.
From the text: as §3

Substrate in data set [16]: O=C(O[C@@H]1Cc2c(O)cc(O)cc2O[C@@H]1c1ccc(O)c(O)c1)c1cc(O)c(O)c(O)c1
The data set is classed as biochemical, Lactiplantibacillus plantarum.
From the text: as §3

Substrate in data set [17]: O=C(O[C@@H]1Cc2c(O)cc(O)cc2O[C@H]1c1cc(O)c(O)c(O)c1)c1cc(O)c(O)c(O)c1
The data set is classed as biochemical, Lactiplantibacillus plantarum.
From the text: as §3

Substrate in data set [18]: COC(=O)c1cc(O)c(O)c(O)c1
The data set is classed as biochemical, Lactiplantibacillus plantarum.
From the text: as §3

Km, kcat and kcat/Km data for three molecules are collected here from publication PMC4233993, “Comparison of three tannases cloned from closely related lactobacillus species: L. Plantarum, L. Paraplantarum, and L. Pentosus” (BMC Microbiology, 2014).

One may read the Km as the concentration of substrate that gives half-maximal velocity. In general, kcat refers to the maximal rate divided by the concentration of active sites. As usually defined, the kcat/Km is the second-order rate constant that governs catalysis at low substrate concentration. For “TanLpa (Lactiplantibacillus paraplantarum)”, the Michaelis-Menten constant (Km) in data set [1] turned out to be 50 ± 5 µM; in data set [2], 60 ± 2 µM; in [3], 60 ± 10 µM; in the data set with COC(=O)c1cc(O)c(O)c(O)c1 [4], 500 ± 60 µM; in data set [5], 40 ± 4 µM; in data set [6], 60 ± 10 µM. For the same molecule, the kcat in [1] is 8.1 ± 0.04 s⁻¹; in [2] it was 9.2 ± 0.09 s⁻¹; in [3], 14.29 ± 0.82 s⁻¹; in the data set on COC(=O)c1cc(O)c(O)c(O)c1 [4] it was 72.73 ± 3.34 s⁻¹; in data set [5] it was 0.35 ± 0.07 s⁻¹; in data set [6], 11.08 ± 0.44 s⁻¹. Also, the kcat/Km in data set [1] came out at 182000 ± 27700 M⁻¹ s⁻¹; in [2], 155000 ± 7970 M⁻¹ s⁻¹; in [3], 261000 ± 46500 M⁻¹ s⁻¹; in the data set with COC(=O)c1cc(O)c(O)c(O)c1 [4] it was 145000 ± 10600 M⁻¹ s⁻¹; in data set [5] it was 9020 ± 2280 M⁻¹ s⁻¹; in data set [6], 195000 ± 21500 M⁻¹ s⁻¹.

For the molecule TanLpe (Lactiplantibacillus pentosus), the Michaelis constant (Km) in [7] came out at 80 ± 4 µM; with COC(=O)c1cc(O)c(O)c(O)c1 [8], 870 ± 410 µM; in data set [9], 60 ± 20 µM; in data set [10], 70 ± 2 µM; in data set [11], 5 ± 0.9 µM; in [12] it was 50 ± 10 µM. Moreover, the kcat turned out to be 1.48 ± 0.11 s⁻¹ in [7]; 15.95 ± 3.13 s⁻¹ with COC(=O)c1cc(O)c(O)c(O)c1 [8]; 0.44 ± 0.02 s⁻¹ in data set [9]; 1.12 ± 0.13 s⁻¹ in data set [10]; 0.06 ± 0.02 s⁻¹ in data set [11]; 0.42 ± 0.03 s⁻¹ in data set [12]. Besides, the kcat/Km in [7] turned out to be 19200 ± 2360 M⁻¹ s⁻¹; with COC(=O)c1cc(O)c(O)c(O)c1 [8], 18800 ± 3080 M⁻¹ s⁻¹; in data set [9] it was 7250 ± 2510 M⁻¹ s⁻¹; in data set [10], 14300 ± 1950 M⁻¹ s⁻¹; in data set [11] it was 10600 ± 1330 M⁻¹ s⁻¹; in [12], 8630 ± 1170 M⁻¹ s⁻¹.

B1: TanLpl (Lactiplantibacillus plantarum) (protein)
chain: MSNRLIFDADWLVPEQVQVAGQAIQYYAARNIQYVQHPVAAIQVLNVFVPAAYLHGSSVNGYQRATAPILMPNTVGGYLPGPADDPQRVTWPTNAGTIQQALKRGYVVVAAGIRGRTTVDKSGQRVGQAPAFIVDMKAAIRYVKYNQGRLPGDANRIITNGTSAGGATSALAGASGNSAYFEPALTALGAAPATDDIFAVSAYCPIHNLEHADMAYEWQFNGINDWHRYQPVAGTTKNGRPKFEPVSGQLTVEEQALSLALKAQFSTYLNQLKLTASDGTHLTLNEAGMGSFRDVVRQLLISSAQTAFDQGTDIHKYAGFVVTGNQVTDLDLSAYLKSLTRMKAVPAFDQLDLTSPENNLFGDATAKAKHFTALAQTRSTVTAQLADAELIQAINPLSYLTTTSSQVAKHWRIRHGAADRDTSFAIPIILAIMLENHGYGIDFALPWDIPHSGDYDLGDLFSWIDGLCQ
notes: full ORF (469 residues, ~50 kDa), C-terminal His tag, fused to YbdK signal peptide in pBE-S, expressed in Bacillus subtilis RIK 1285, purified from cells
Take B1: the Km in data set [13] worked out at 100 ± 10 µM; in data set [14] it was 50 ± 2 µM; in data set [15], 40 ± 9 µM; in [16], 30 ± 20 µM; in data set [17], 30 ± 8 µM; in data set [18], 370 ± 40 µM. For the same molecule, the catalytic constant (kcat) was 1.12 ± 0.03 s⁻¹ in data set [13]; 2.41 ± 0.10 s⁻¹ in data set [14]; 0.26 ± 0.04 s⁻¹ in [15]; 1.49 ± 0.19 s⁻¹ in data set [16]; 0.89 ± 0.044 s⁻¹ in [17]; 46.02 ± 0.87 s⁻¹ in [18]. For the same molecule, the kcat/Km was 11700 ± 1290 M⁻¹ s⁻¹ in [13]; 53600 ± 4620 M⁻¹ s⁻¹ in [14]; 6040 ± 570 M⁻¹ s⁻¹ in data set [15]; 52200 ± 25600 M⁻¹ s⁻¹ in [16]; 27200 ± 6280 M⁻¹ s⁻¹ in data set [17]; 125000 ± 15400 M⁻¹ s⁻¹ in [18].
